Reference: the Immune Epitope Database (IEDB)

Key:
HLA-A*01:01 [1] = experiment: IEDB peptide-MHC binding, purified MHC/competitive/fluorescence; filed as Kd, often an IC50 or EC50 that approximates it; ≥ and ≤ were set here for values at or beyond the usual limits of such assays; conditions: source organism: Human immunodeficiency virus 1
HLA-A*30:01 = experiment: as above; conditions: source organism: Human immunodeficiency virus 1
HLA-B*08:01 [2] = experiment: as above; conditions: source organism: Human immunodeficiency virus 1
HLA-B*15:01 [3] = experiment: as above
HLA-B*15:09 [4] = experiment: as above
HLA-B*15:17 [5] = experiment: as above; conditions: source organism: Human immunodeficiency virus 1
HLA-B*38:01 [6] = experiment: as above; conditions: source organism: Human immunodeficiency virus 1
HLA-A*26:01 [7] = experiment: as above; conditions: source organism: Cryptosporidium parvum Iowa II
HLA-A*29:02 = experiment: as above; conditions: source organism: Cryptosporidium parvum Iowa II
HLA-A*80:01 = experiment: as above; conditions: source organism: Cryptosporidium parvum Iowa II
HLA-B*18:01 = experiment: as above; conditions: source organism: Cryptosporidium parvum Iowa II
HLA-B*27:03 = experiment: as above; conditions: source organism: Cryptosporidium parvum Iowa II
HLA-B*39:01 = experiment: as above
HLA-B*46:01 [8] = experiment: as above; conditions: source organism: Cryptosporidium parvum Iowa II
HLA-B*51:01 = experiment: as above; conditions: source organism: Cryptosporidium parvum Iowa II
HLA-B*57:01 [9] = experiment: as above; conditions: source organism: Cryptosporidium parvum Iowa II
HLA-A*01:01 [10] = experiment: IEDB peptide-MHC binding, purified MHC/direct/fluorescence; filed as Kd, often an IC50 or EC50 that approximates it; ≥ and ≤ were set here for values at or beyond the usual limits of such assays
HLA-A*02:01 = experiment: as above
HLA-A*11:01 [11] = experiment: as above; conditions: source organism: Marburg virus - Musoke, Kenya, 1980
HLA-A*26:03 = experiment: as above; conditions: source organism: Orthomarburgvirus marburgense
HLA-A*31:01 = experiment: as above
HLA-A*68:02 = experiment: as above; conditions: source organism: Marburg virus - Musoke, Kenya, 1980
HLA-A*69:01 = experiment: as above
HLA-B*07:02 = experiment: as above; conditions: source organism: Marburg virus - Musoke, Kenya, 1980
HLA-B*08:01 [12] = experiment: as above
HLA-B*15:01 [13] = experiment: as above
HLA-B*15:17 [14] = experiment: as above
HLA-B*27:05 = experiment: as above
HLA-B*46:01 [15] = experiment: as above
HLA-B*48:01 = experiment: as above
HLA-B*57:01 [16] = experiment: as above
HLA-B*58:01 = experiment: as above
HLA-A*26:02 = experiment: IEDB peptide-MHC binding, purified MHC/competitive/fluorescence; filed as Kd, often an IC50 or EC50 that approximates it; ≥ and ≤ were set here for values at or beyond the usual limits of such assays; conditions: source organism: Orthomarburgvirus marburgense
HLA-B*35:01 = experiment: as above; conditions: source organism: Orthomarburgvirus marburgense
HLA-A*03:01 = experiment: IEDB peptide-MHC binding, purified MHC/direct/fluorescence; filed as Kd, often an IC50 or EC50 that approximates it; ≥ and ≤ were set here for values at or beyond the usual limits of such assays; conditions: source organism: Rickettsia canadensis
HLA-A*26:01 [17] = experiment: as above; conditions: source organism: Candidatus Rickettsia tarasevichiae
HLA-B*15:09 [18] = experiment: as above; conditions: source organism: Candidatus Rickettsia tarasevichiae
HLA-B*38:01 [19] = experiment: as above; conditions: source organism: Candidatus Rickettsia tarasevichiae
HLA-B*40:01 = experiment: as above; conditions: source organism: Rickettsia canadensis
HLA-A*11:01 [20] = experiment: IEDB peptide-MHC binding, purified MHC/competitive/fluorescence; filed as Kd, often an IC50 or EC50 that approximates it; ≥ and ≤ were set here for values at or beyond the usual limits of such assays; conditions: source organism: Rickettsia canadensis
[21] = source organism: Human immunodeficiency virus 1
[22] = source organism: Cryptosporidium parvum Iowa II
[23] = source organism: Marburg virus - Musoke, Kenya, 1980
[24] = source organism: Orthomarburgvirus marburgense
[25] = source organism: Rickettsia canadensis

GSEEIKSLF was tested, and the Kd (HLA-A*01:01 [1]) was no less than 20 µM, the Kd (HLA-A*30:01) was no less than 20 µM and the Kd (HLA-B*08:01 [2]) was no less than 20 µM. It also gave a Kd (HLA-B*15:01 [3]; [21]) of no less than 20 µM, a Kd (HLA-B*15:09 [4]; [21]) of no less than 20 µM and a Kd (HLA-B*15:17 [5]) of 0.182 µM. The Kd (HLA-B*38:01 [6]) was no less than 20 µM.

KLGDITLFL was tested, and the Kd (HLA-A*26:01 [7]) was no less than 20 µM, the Kd (HLA-A*29:02) was 0.0341 µM and the Kd (HLA-A*80:01) was 0.0156 µM. It also gave a Kd (HLA-B*15:01 [3]; [22]) of no less than 20 µM, a Kd (HLA-B*18:01) of no less than 20 µM and a Kd (HLA-B*27:03) of no less than 20 µM. It also gave a Kd (HLA-B*39:01; [22]) of no less than 20 µM, a Kd (HLA-B*46:01 [8]) of no less than 20 µM and a Kd (HLA-B*51:01) of no less than 20 µM. It also gave a Kd (HLA-B*57:01 [9]) of no less than 20 µM.

For NQECWDSVF, the Kd (HLA-A*01:01 [10]; [23]) was no less than 20 µM, the Kd (HLA-A*02:01; [23]) was no less than 20 µM and the Kd (HLA-A*11:01 [11]) was no less than 20 µM. It also gave a Kd (HLA-A*26:03) of no less than 20 µM, a Kd (HLA-A*31:01; [23]) of no less than 20 µM and a Kd (HLA-A*68:02) of no less than 20 µM. For the same sequence, the Kd (HLA-A*69:01; [23]) was no less than 20 µM, the Kd (HLA-B*07:02) was no less than 20 µM and the Kd (HLA-B*08:01 [12]; [24]) was no less than 20 µM. It also gave a Kd (HLA-B*15:01 [13]; [23]) of 0.373 µM, a Kd (HLA-B*15:17 [14]; [23]) of no less than 20 µM and a Kd (HLA-B*27:05; [23]) of no less than 20 µM. For the same sequence, the Kd (HLA-B*46:01 [15]; [23]) was no less than 20 µM, the Kd (HLA-B*48:01; [23]) was no less than 20 µM and the Kd (HLA-B*57:01 [16]; [23]) was no less than 20 µM. For the same sequence, the Kd (HLA-B*58:01; [23]) was no less than 20 µM, the Kd (HLA-A*26:02) was 0.384 µM and the Kd (HLA-B*15:09 [4]; [24]) was 2.52 µM. It also gave a Kd (HLA-B*35:01) of 0.216 µM and a Kd (HLA-B*39:01; [24]) of 0.364 µM.

In the case of SSEADCFTY, the Kd (HLA-A*01:01 [10]; [25]) is reported as 0.0553 µM, the Kd (HLA-A*02:01; [25]) is reported as no less than 20 µM and the Kd (HLA-A*03:01) is reported as no less than 20 µM. It also gave a Kd (HLA-A*26:01 [17]) of no less than 20 µM, a Kd (HLA-A*31:01; [25]) of no less than 20 µM and a Kd (HLA-A*69:01; [25]) of no less than 20 µM. It also gave a Kd (HLA-B*08:01 [12]; source organism: Candidatus Rickettsia tarasevichiae) of no less than 20 µM, a Kd (HLA-B*15:01 [13]; [25]) of no less than 20 µM and a Kd (HLA-B*15:09 [18]) of no less than 20 µM. For the same sequence, the Kd (HLA-B*15:17 [14]; [25]) was 0.0816 µM, the Kd (HLA-B*27:05; [25]) was no less than 20 µM and the Kd (HLA-B*38:01 [19]) was no less than 20 µM. It also gave a Kd (HLA-B*40:01) of no less than 20 µM, a Kd (HLA-B*46:01 [15]; [25]) of no less than 20 µM and a Kd (HLA-B*48:01; [25]) of no less than 20 µM. For the same sequence, the Kd (HLA-B*57:01 [16]; [25]) was no less than 20 µM, the Kd (HLA-B*58:01; [25]) was no less than 20 µM and the Kd (HLA-A*11:01 [20]) was no less than 20 µM.
